Data taken from patent US12194057B2, “NXTAR-derived oligonucleotides and uses thereof” (Washington University, priority 2020, dated 2025).

Assays:
AR-V7 = experiment: qRT-PCR of AR-V7 expression in prostate cancer cells; format: cell-based, human; conditions: 22Rv1 cells, reintroduction of NXTAR
Procedure: NXTAR-N5 oligonucleotide was synthesized by IDT, and the oligonucleotide sequence is provided in TABLE 1 and FIG. 7C (* represents phosphorothioate bond modifications to avoid degradation by exonucleases). Equal numbers of VCaP and 22Rv1 cells were transfected with NXTAR-N5 or globin-derived oligonucleotide using X-tremeGENE360 (Sigma-Aldrich, Cat #08724121001), and the number of live cells was counted 96 h post-transfection using trypan blue exclusion method (Sigma, Cat #T8154). RNA was prepared from these cells, and qRT-PCR [SYBR PremixEx Taq II (Tli RNase H Plus)ROX, Clontech Takara, Cat #RR82LR] for AR and AR-V7 was performed as described earlier (see e.g., Mahajan et al. (2017) Cancer Cell).
Cells were transfected, infected or treated [(R)-9b; EPZ6438, TargetMol, Cat #T1788] accordingly. RNA was used for cDNA preparation using High-Capacity cDNA Reverse Transcription Kit (Thermo Scientific Cat #4368814). Resulting cDNA was then analyzed by qPCR using an Applied Biosystems 7900 Real-Time PCR System (Thermo Scientific) and SYBR Green PCR Master Mix [SYBR PremixEx Taq II (Tli RNase H Plus) ROX, Clontech Takara, Cat #RR82LR] according to the manufacturers' instructions. Dissociation curves were generated for each plate to verify the integrity of the primers. The relative expression of RNAs was calculated using the comparative Ct or standard curve method. […]

AR promoter = experiment: ChIP-qPCR (EZH2, H3K27me3) at AR promoter; format: cell-based, human
Procedure: Chromatin immunoprecipitation (ChIP), quantitative RT-PCR, and ChIP-qPCR were performed as described earlier (see e.g., Mahajan et al. (2017) Cancer Cell; Mahajan et al. (2012) J Biol Chem; and Mahajan et al. (2012) Nat Struct Mol Bio). Briefly, cells were either transfected, infected or treated with various inhibitors (R)-9b; CPTH2 (Sigma, Cat #C9873)], fixed in formaldehyde, lysed and ChIP was performed with antibodies recognizing AR (SCBT, sc-7305; RRID:AB_626671), GCN5 (SCBT, SC-365321; RRID:AB_10846182), H3K14ac (CST, 7627S; RRID:AB_10839410), H3K27me3 (CST, 9733S; RRID:AB 2616029), NCOR1 (Bethyl Laboratories, Cat #A301-145A; RRID:AB_873085), EZH2 (CST, 5246S; RRID:AB_10694683), or IgG (Abcam, ab2410; RRID:AB_303052), immobilized on Protein A magnetic beads (Biorad, Cat #161-4013). The complexes were washed with ChIP buffers, eluted with elution buffer (Active Motif, Cat #53008), and subjected to reverse crosslinking, followed by RNase and proteinase K treatments. A part of soluble chromatin was processed separately at the same time and designated as input DNA. Treated ChIP DNA and input DNAs were purified using PCR-DNA purification columns (Qiagen, Cat #28106). The amount of immunoprecipitated DNA was determined by real-time PCR.

AR = experiment: Immunoblotting of AR protein in prostate cancer cells; format: cell-based, human
Procedure: Cells were harvested, lysed by sonication in receptor lysis buffer (see e.g., Mahajan et al. (2010) PLoS One) and 20-50 μg of protein lysates were fractionated by SDS-PAGE, and transferred onto a PVDF membrane (Immobilon, Cat #IPVH00010). After blocking in 5% nonfat dry milk (RPI, Cat #M17200) (or 3% BSA, Goldbio, Cat #A-420-500), membranes were incubated with the following monoclonal antibodies: AR (SCBT, Cat #sc-7305; RRID:AB 626671), pY276-AR (29), ACK1 (SCBT, sc-28336; RRID:AB 626629), pACK1 (Upstate, 09-142; RRID:AB 612088), EZH2, and Actin. The signals were visualized by using the enhanced chemiluminescence (ECL; Pierce, 32106) system.

VCaP cells = experiment: Xenograft of VCaP cells infected with pBABE vector or NXTAR in SCID mice; format: in vivo
Procedure: All animal experiments were performed using the standards for humane care in accordance with the National Institutes of Health Guide for the Care and Use of Laboratory Animals. Mice breeding and colony maintenance were performed according to IACUC protocols approved by Washington University in St. Louis. 1.5×10^6 VCaP cells were suspended in 200 μL of PBS with 50% Matrigel (Corning, Cat #354428) and implanted subcutaneously into the dorsal flank of castrated 6-week-old male SCID mice (Charles River, Strain code: 236). Once the tumors reached approximately 100 mm^3, mice were randomized and injected subcutaneously with (R)-9b mesylate salt suspended in 6% Captisol (Cydex Pharmaceuticals). Tumor volumes were measured twice weekly using calipers. At the end of the study, all mice were humanely euthanized and tumors were extracted and weighed. To assess the role of NXTAR in tumor growth, 1.5×10^6 VCaP cells that were either infected with pBABE vector or NXTAR and selected with puromycin (Gibco, Cat #A1113803), implanted and growth of tumors was recorded. The personnel taking tumor volume measurement were blinded for the treatment groups.
To examine the direct effect of NXTAR restoration on prostate tumor growth, equal numbers of VCaP infected with either pBABE vector or NXTAR constructs were injected in the SCID mice. Palpable tumors were formed around week 5 that were measured twice a week thereafter.

B1: NXTAR: long non-coding RNA, 1476-nt transcript (SEQ ID NO: 58), expressed from retroviral or plasmid constructs (nucleic acid, listed as Homo sapiens)
chain: GGAAAAGGAAGGCTGCACAGAAGAACTGGCATTTGTGTTCTGCCTACAAAGCTGAAAAGGATTTCACCCAAATCAGGGAAGATCAGCCTTATGAGGTGGATATTATTGCCACAATAATTTTCCAGATGAAAAATGGAGGCCCAGAGATGTTAAGGAATTTGCCCAAGATCATGAAAAGACACTCTCCCCTATTGAGATGTCATGCAAGGATCAGTGCTGTGTGAAAATCCACATGAAGCAGGAAATGCAGGTGGTGGTGTCCAATCTGATTTCAAGATCTGAGAAGCTGTGCACTGCCTGAAAGGTATCTATTTAAGGTGTCACCAGACTCCTGCTCCACTCCTGCCCAAGGCCCAGCCCATCCAAGAGCAAAAGGCAAGTGGTGTTACAACCTTGGGATTTCCTGTATCTGCCCTCTTGCGGATAGCAGGACAGAGTCACAGCTGCATTAAATTCGCTTAAGACTTATTGAGACACTTCAACACTTCAACAACGACCTGTGAGATTAAGATTATTATTTTAAATTTACAGAAGGGGAAACTAAGAATTATAGACATGAAGTGACTCACCTATGACCACCTGGTGATAGAACCAGGACTAGAGCTCAGGTATGAAGATTTCTGGGGGAGTCCCTGAAAAAAAGGCTCCATATGGAATTACAATGTGGAAAAGGCCAAGGCCTCACCAACCCTTTTCTCTTCAACACCTGGATCCCTAAGTCCTTATTCGTAACCTCCTCTTTGGACAAGGTTTTGGTAGACAAAGCCAGAGCCTCTTGCACTGAGAAAGACAAATTCTCCTCTTGCAGTGAACCACAGGTAAATGCTCCAATAGAGAGTCCAAGCCAAACCTCCGGGTGTTATTCATGACCCAGGCAAGTCTGCTTTCTCATTCCCCCTATCTCTAGACCGTTTTCCATTTGGGCTTCCTTTTCTTCTTTTATCCTCAAAGAAACATGTTTCCTTCTAGTAGGTTTGGCTGCCACCACTAGGGTCCTGGCTACAACTGGCCCTCAGGTAACTCTCTCACCTCTGAGTTGGATAGTATCCTCTCTCGTCCCCATACACAAGTGTTTCTCTTCCCAGACACCTTCCTTACACAATTTCCCATTTCTTTCTCATCTCACCCTTGCTTTAATCAACATAGTTCTTTCCCCTGAGATTACTCTTCAGCCTTTCTTGTTGAAGCACTGCCCAGTGGTTCTCTTGGGATTTCCATTTCTCTCCCCTCAGCTCTCTTGGTACCAAATTCTGTAAGCTTCTCTGGTTTTTGGTTTCTCTTCCTTCTTTTCCTTCCAGGCAACATTTACTCAATCTAGGCTTGGATGATCAGGTACTTCTGCCAGCCTGCCCACTAGGGAACTCTGGGCTAGGAATATGTCTCAATGGCACCATTATATTTGGAAGGACGCTTCTGTATTTACACTGAACACACTAAAATACTAAACTTGAAGCCAAAATCCCCTCTCTGGCTCCA
AR-V7 expression (AR-V7): significantly compromised
EZH2 binding at the AR promoter (AR promoter; LNCaP cells overexpressing NXTAR): significant binding
deposition of H3K27me3 marks in the AR promoter (AR promoter; LNCaP, 22Rv1 and VCaP cells, NXTAR restoration): significant increase in deposition of H3K27me3 marks
AR protein (AR; 22Rv1 cells, NXTAR construct 0.25-2 μg, 48 hrs): dose-dependent downregulation of AR
AR protein (AR; LNCaP and 22Rv1 cells, NXTAR plasmid 24, 48 and 72 hrs): decreased upon NXTAR expression in a time-dependent manner
AR expression (protein) (AR; VCaP and 22Rv1 cells, NXTAR expression): loss of AR expression
tumor growth (VCaP cells; NXTAR overexpressing vs vector-expressing VCaP cells): significant reduction in tumor growth
AR protein levels in tumors (VCaP cells; immunoblotting of tumor lysates): significant reduction in AR protein levels
tumor burden (VCaP cells; tumor weights and volume): significantly reduced
